# From patent publication US20100104554
# T1: recombinant human cathepsin S propeptide (residues 17-113) with N-terminal hexahistidine tag, expressed from pQE30
# T1 chain: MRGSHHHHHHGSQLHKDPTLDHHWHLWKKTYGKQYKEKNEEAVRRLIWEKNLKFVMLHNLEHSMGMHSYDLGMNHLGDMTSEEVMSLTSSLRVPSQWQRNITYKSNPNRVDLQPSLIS
# B1: human cathepsin S (Calbiochem) (protein)
# chain: LPDSVDWREKGCVTEVKYQGSCGACWAFSAVGALEAQLKLKTGKLVSLSAQNLVDCSTEKYGNKGCNGGFMTTAFQYIIDNKGIDSDASYPYKAMDLKCQYDSKYRAATCSKYTELPYGREDVLKEAVANKGPVSVGVDARHPSFFLYRSGVYYEPSCTQNVNHGVLVVGYGDLNGKEYWLVKNSWGHNFGEEGYIRMARNKGNHCGIASFPSYPEI
# Legend:
# [1] = biological target: T1, recombinant human cathepsin S …
protein,measurement,setting,value
B1,hydrolysis of Z-VVR-AMC by CatS (fluorometric assay),Fc-control protein,The Fc-control protein (200 nM) had no discernable effects on CatS activity
same,elastinolytic turnover of Elastin-DQ by CatS over a 60 minute incubation,[1],the inventors were able to demonstrate inhibition of this activity
same,"hydrolysis of Cbz-Val-Val-Arg-AMC by CatS (fluorometric assay), rCatSPP 0 nM to 500 nM",[1],the dose-dependent inhibition of CatS activity was observed
